# Data published in paper PMC3902906.
# Assays:
# [1] = biological target: CsoR^Sl R57A (copper sensitive operon repressor from Streptomyces lividans, R57A mutant) (Streptomyces lividans 1326); test: SEC; analytical gel filtration column, retention volume of the purified mutant protein alone; data not shown
# [2] = biological target: CsoR (CsoRSl) wild type (Streptomyces lividans 1326) (UniProt D6EK73); test: ITC; conditions: ITC: 10 mM HEPES, 150 mM NaCl, pH 7.5, 25 C, 100 uM DNA into 10 uM CsoR tetramer, EMSA: same buffer, room temperature, 30 min, 6% PAGE in TBE, SEC: same buffer
# [3] = biological target: CsoR^Sl R54A (copper sensitive operon repressor from Streptomyces lividans, R54A mutant) (Streptomyces lividans 1326); test: SEC; analytical gel filtration column, retention volume of the purified mutant protein alone; data not shown
# [4] = biological target: CsoR^Sl R132A (copper sensitive operon repressor from Streptomyces lividans, R132A mutant) (Streptomyces lividans 1326); test: as above
# [5] = biological target: CsoR^Sl Q81A (copper sensitive operon repressor from Streptomyces lividans, Q81A mutant) (Streptomyces lividans 1326); test: as above
# [6] = biological target: CsoR^Sl R129A (copper sensitive operon repressor from Streptomyces lividans, R129A mutant) (Streptomyces lividans 1326); test: as above
Substance,Kd [2] [nM],further results
"CsoR^Sl R57A (copper sensitive operon repressor from Streptomyces lividans, R57A mutant) (natural protein)",,stoichiometry N [1]: 4
TACCCCCTAGGGGTAT (double strand) [copZA1-CON],971,
CGTTGGGTACCCCCTAGGGGTATATATGG (double strand) [copZA1-GTA down],87,
"CsoR^Sl R54A (copper sensitive operon repressor from Streptomyces lividans, R54A mutant) (natural protein)",,stoichiometry N [3]: 4
"CsoR^Sl R132A (copper sensitive operon repressor from Streptomyces lividans, R132A mutant) (natural protein)",,stoichiometry N [4]: 4
TATACCCCCTAGGGGTA (double strand) [copZA2-CON],107,
ATACCCCTGGTGGGTATAT (double strand) [csoR-CON],120,
CGTTGGGTACCCCCTAGGGGTATACATGG (double strand) [copZA1-EXT],,"Kd ([2]; apo, reverse titration (protein into DNA), N 0.86): 112 nM"
"CsoR^Sl Q81A (copper sensitive operon repressor from Streptomyces lividans, Q81A mutant) (natural protein)",,stoichiometry N [5]: 4
CGTTGGATACCCCCTAGGGGTATACATGG (double strand) [copZA1-GTA up],96,
GCCTTTATACCCCCTAGGGGTAAGGTGGG (double strand) [copZA2-EXT],57,
CGGACAAATACCCCTGGTGGGTATATATGG (double strand) [csoR-EXT],74,
"CsoR^Sl R129A (copper sensitive operon repressor from Streptomyces lividans, R129A mutant) (natural protein)",,stoichiometry N [6]: 4
